[ ]: non-standard residue; d: D form. F2Pmp = N[C@@H](Cc1ccc(C(F)(F)P(=O)(O)O)cc1)C(=O)O
How the values were obtained:
[1] = molecular target: T1, Ac-Asp-Ala-Asp-Glu-F2Pmp-Leu-NH2; assay: ITC, 25 C, pH 7.0
T1 construct: Synthetic hexapeptide printed in three-letter code; also called F2Pmp-containing peptide; non-hydrolyzable substrate analog
T1 peptide: Ac-DADE[F2Pmp]L-NH2
Method: (§1) All isothermal titration calorimetry experiments were performed using an MCS Isothermal Titration Calorimetry System from Microcal Inc. (Northampton, Mass.). Experiments at pH 7.0 were conducted at 25° C., in 50 mM 3,3-dimethylglutarate buffer containing 1 mM DTT. The ionic strength of the buffer was adjusted to 0.15 M by addition of NaCl. Protein concentration in the calorimeter cell was 27-85 µM, while the ligand concentration in the syringe was 0.37-1 mM.
The PTP1B samples used in the isothermal titration calorimetry experiments were dialyzed completely against buffer. High-concentration stock solutions were prepared for ligands with distilled water, and adjusted to pH 7.0. […] Protein dilution during titration was determined by titration of buffer into the protein solution. […] The heat of ligand dilution was corrected by subtracting the average heat of injection after saturation.
(§2) A typical titration curve and binding isotherm for the binding of D181A/Q262A to Ac-Asp-Ala-Asp-Glu-F_2Pmp-Leu-NH_2 is shown in FIG. 3. From curve-fitting of the binding isotherms, the stoichiometry for the binding of the peptide to D181A/Q262A was determined to be 1:1.

[2] = molecular target: T2, EGFR 988-998 peptide DADEpYLIPQQG
T2 chain: DADEXLIPQQG

[3] = tested on: EGF receptor; assay: Substrate pull-down: anti-HA immunoprecipitation of PTP1B forms from EGF-treated COS1 cells, anti-pTyr/anti-EGFR blot; assay type: cell-based, Monkey
Method: FIG. 5 illustrates immunoprecipitation (IP) and Western blots (WB) of the phospho-EGF receptor, and other less abundant PTP1B substrates, by the PTP1B substrate-trapping mutants. Wild-type PTP1B, D181A, D181A/Q262A, D181A/C215S, C215S, or blank vector (pJ3H) was used to transfect COS1 cells (4 μg plasmid/60 mm dish). The cells were maintained at 37° C. for 44-48 h. Twenty minutes before harvesting the cells, 20 ng/ml EGF was added to each dish. The PTP1B proteins were precipitated from the cell lysates using anti-hemagglutinin (anti-HA) antibody-conjugated agarose beads from the cell lysates (500 μg total protein) at 4° C. overnight. The beads were washed 3 times with the lysis buffer, mixed with 2×SDS sample buffer, and then boiled for 5 min. The immunocomplexes were resolved by SDS-PAGE, and transferred onto a nitrocellulose membrane. The membrane was probed with anti-pTyr HRP-conjugated antibody (lower panel). The membrane was then stripped and reblotted with anti-EGFR rabbit polyclonal antibody (middle panel). Thereafter, the membrane was further stripped, and re-probed with anti-HA HRP conjugate (upper panel).
The hemagglutinin-tagged (HA-tagged) full-length human wild-type PTP1B in pJ3H expression vector was a gift from Dr. Chemoff (30). The HA-tagged PTP1B mutants, C215S, D181A, D181A/C215S, and D181A/Q262A, were generated by PCR reactions, according to the standard procedure of the Quick-Change™ site-directed mutagenesis kit (Stratagene), using pJ3H-HA-PTP1B as a template. All mutations were verified by DNA sequencing.
Monkey kidney COS1 cells (ATCC: CRL-1650) were maintained in Dulbecco's modified Eagle's minimum essential medium (DMEM), supplemented with 10% fetal bovine serum (Life Technologies, Inc.), penicillin (50 units/ml), streptomycin (50 μg/ml), and L-glutamine (2 mM) under a humidified atmosphere containing 5% CO2. […] The efficiency of transfection, as assessed by 5-bromo-4-chloro-3-indolyl-β-D galactoside (X-Gal) staining of pCMV-β-gal-transfected (β-Gal staining kit, Invitrogen) COS cells, was 25%. […]

[4] = molecular target: T1, Ac-Asp-Ala-Asp-Glu-F2Pmp-Leu-NH2; assay: ITC
Method: as §1, §2

B1: PTP1B/D181A/Q262A, catalytic domain (residues 1 to 321) (enzyme, human, UniProt P18031 1-321, looked up)
chain: MEMEKEFEQIDKSGSWAAIYQDIRHEASDFPCRVAKLPKNKNRNRYRDVSPFDHSRIKLHQEDNDYINASLIKMEEAQRSYILTQGPLPNTCGHFWEMVWEQKSRGVVMLNRVMEKGSLKCAQYWPQKEEKEMIFEDTNLKLTLISEDIKSYYTVRQLELENLTTQETREILHFHYTTWPAFGVPESPASFLNFLFKVRESGSLSPEHGPVVVHCSAGIGRSGTFCLADTCLLLMDKRKDPSSVDIKKVLLEMRKFRMGLIATADQLRFSYLAVIEGAKFIMGDSSVQDQWKELSHEDLEPPPEHIPPPPRPPKRILEPHN
notes: range 1-321; Used in vitro (ITC, kinetics); also called PTP1B substrate-trapping double mutant
Molecule B1 has a TΔS [1] of 6.6 kcal/mol, a ΔG [1] of -11.1 kcal/mol and a ΔH [1] of -4.5 kcal/mol. For the same molecule, the Km (hydrolysis of the EGFR 988-998 peptide, 25 C, pH 7.0) [2] was 51 µM, the “affinity for EGFR in in vivo substrate-trapping experiments, versus PTP1B/D181A or PTP1B/C215S” value [3] was “much higher affinity” and the “quantity of tyrosine-phosphorylated EGF receptor co-precipitated, fold greater than with D181A” value ([3]; EGF 20 ng/ml for 20 min, anti-HA immunoprecipitation (FIG. 5)) was “more than 3 fold”. For the same molecule, the “trapping of other tyrosine phosphorylated proteins (P160, P120, P70, P60)” value ([3]; anti-HA immunoprecipitation, not visible in D181A or C215S samples (FIG. 5)) was “trapped several novel, less-abundant tyrosine phosphorylated proteins” and the “fold higher substrate-binding affinity than PTP1B/C215S” value [4] was 28 fold.

Source: patent US8071348B2, “Protein tyrosine phosphatase substrate-trapping double mutant and uses thereof” (Albert Einstein College of Medicine of Yeshiva University, priority 2002, dated 2011)
